Test results as given in patent publication US20080161236 (published 2008).

Legend:
[1] = target: Botulinum neurotoxin serotype B light chain (Clostridium botulinum, UniProt B1INP5 B1INP5:2-441)
[2] = target: Botulinum neurotoxin serotype B holotoxin (Clostridium botulinum, UniProt B1INP5;B1INP5 B1INP5:2-441,B1INP5:442-1291)
[3] = target: Botulinum neurotoxin serotype A light chain (50 kD zinc endopeptidase) (Clostridium botulinum, UniProt P0DPI1 P0DPI1:2-448)
[4] = target: Botulinum neurotoxin serotype A holotoxin (Clostridium botulinum, UniProt P0DPI1;P0DPI1 P0DPI1:2-448,P0DPI1:449-1296)
Sequence of Botulinum neurotoxin serotype A holotoxin (P0DPI1 2-448, chain 1 of 2): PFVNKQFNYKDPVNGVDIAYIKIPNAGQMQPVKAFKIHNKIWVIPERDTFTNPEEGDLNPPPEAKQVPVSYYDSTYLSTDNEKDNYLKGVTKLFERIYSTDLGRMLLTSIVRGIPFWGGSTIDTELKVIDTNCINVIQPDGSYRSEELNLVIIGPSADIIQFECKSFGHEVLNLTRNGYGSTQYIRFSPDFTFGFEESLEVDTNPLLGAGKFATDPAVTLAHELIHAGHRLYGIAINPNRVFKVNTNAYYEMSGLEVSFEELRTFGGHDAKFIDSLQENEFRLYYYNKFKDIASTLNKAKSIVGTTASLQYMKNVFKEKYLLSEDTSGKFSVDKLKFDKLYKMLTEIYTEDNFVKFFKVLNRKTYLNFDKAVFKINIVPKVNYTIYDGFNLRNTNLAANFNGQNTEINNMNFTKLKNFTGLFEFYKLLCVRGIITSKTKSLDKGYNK
Sequence of Botulinum neurotoxin serotype A holotoxin (P0DPI1 449-1296, chain 2 of 2): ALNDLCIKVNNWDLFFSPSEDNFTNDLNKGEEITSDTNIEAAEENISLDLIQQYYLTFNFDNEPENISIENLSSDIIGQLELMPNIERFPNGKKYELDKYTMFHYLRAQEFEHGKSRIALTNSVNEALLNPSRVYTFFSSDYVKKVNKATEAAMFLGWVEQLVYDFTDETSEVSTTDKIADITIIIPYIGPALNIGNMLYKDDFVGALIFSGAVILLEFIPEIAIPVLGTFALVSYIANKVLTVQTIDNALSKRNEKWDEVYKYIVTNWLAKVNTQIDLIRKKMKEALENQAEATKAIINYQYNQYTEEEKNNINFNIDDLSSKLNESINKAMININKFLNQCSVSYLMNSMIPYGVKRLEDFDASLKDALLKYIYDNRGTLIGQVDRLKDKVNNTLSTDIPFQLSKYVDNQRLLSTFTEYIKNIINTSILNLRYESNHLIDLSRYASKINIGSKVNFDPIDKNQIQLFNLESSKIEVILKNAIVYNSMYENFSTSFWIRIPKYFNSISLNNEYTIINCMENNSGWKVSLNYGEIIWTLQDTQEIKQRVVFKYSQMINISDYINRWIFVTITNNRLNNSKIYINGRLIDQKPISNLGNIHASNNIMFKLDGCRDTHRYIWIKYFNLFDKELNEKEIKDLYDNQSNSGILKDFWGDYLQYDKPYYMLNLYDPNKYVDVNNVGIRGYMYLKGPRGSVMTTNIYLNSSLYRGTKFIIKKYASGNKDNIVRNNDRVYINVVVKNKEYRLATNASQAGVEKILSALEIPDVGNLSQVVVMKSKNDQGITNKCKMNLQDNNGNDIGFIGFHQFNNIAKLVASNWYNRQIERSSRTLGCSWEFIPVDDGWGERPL

Measured: binding result

Sequence of Botulinum neurotoxin serotype B holotoxin (B1INP5 2-441, chain 1 of 2): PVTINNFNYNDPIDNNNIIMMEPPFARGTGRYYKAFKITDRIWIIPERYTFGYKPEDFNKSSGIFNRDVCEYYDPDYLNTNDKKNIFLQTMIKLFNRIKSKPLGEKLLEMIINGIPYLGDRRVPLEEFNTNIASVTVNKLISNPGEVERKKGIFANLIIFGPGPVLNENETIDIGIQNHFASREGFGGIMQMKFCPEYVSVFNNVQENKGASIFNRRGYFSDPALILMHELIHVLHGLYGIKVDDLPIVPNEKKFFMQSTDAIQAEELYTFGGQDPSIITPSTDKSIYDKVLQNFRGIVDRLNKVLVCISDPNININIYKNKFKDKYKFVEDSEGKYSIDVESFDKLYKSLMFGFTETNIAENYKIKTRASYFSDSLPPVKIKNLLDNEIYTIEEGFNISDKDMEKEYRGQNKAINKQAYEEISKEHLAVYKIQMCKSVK
Sequence of Botulinum neurotoxin serotype B holotoxin (B1INP5 442-1291, chain 2 of 2): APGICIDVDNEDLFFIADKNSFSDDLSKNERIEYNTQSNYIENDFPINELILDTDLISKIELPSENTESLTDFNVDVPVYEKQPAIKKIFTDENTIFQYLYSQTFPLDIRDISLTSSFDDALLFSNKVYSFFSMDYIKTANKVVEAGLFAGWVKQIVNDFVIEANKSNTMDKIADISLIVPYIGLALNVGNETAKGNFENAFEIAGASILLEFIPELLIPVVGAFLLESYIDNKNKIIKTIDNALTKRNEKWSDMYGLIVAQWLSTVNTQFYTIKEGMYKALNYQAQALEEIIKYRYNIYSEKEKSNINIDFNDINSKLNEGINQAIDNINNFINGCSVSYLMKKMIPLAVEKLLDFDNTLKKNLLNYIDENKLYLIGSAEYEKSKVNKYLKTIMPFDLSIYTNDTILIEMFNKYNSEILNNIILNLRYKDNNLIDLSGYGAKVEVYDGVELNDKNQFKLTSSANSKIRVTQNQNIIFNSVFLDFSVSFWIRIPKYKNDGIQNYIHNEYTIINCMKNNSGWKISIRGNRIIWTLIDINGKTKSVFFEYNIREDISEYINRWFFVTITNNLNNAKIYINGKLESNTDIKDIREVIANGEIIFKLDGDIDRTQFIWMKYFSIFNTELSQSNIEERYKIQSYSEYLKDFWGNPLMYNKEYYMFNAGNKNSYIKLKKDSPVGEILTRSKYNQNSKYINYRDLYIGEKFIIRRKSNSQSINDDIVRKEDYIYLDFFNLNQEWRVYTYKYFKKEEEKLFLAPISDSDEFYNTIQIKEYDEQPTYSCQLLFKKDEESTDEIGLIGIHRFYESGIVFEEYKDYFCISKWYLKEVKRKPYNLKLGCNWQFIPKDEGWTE
Sequence of Botulinum neurotoxin serotype B light chain (B1INP5 2-441, one chain of several): as the sequence (B1INP5 2-441, chain 1 of 2) above
Sequence of Botulinum neurotoxin serotype A light chain (50 kD zinc endopeptidase) (P0DPI1 2-448, one chain of several): as the sequence (P0DPI1 2-448, chain 1 of 2) above

B1: BoNT A/B HT aptamer (ssDNA)
DNA: CATCCGTCACACCTGCTCTGCTATCACATGCCTGCTGAAGTGGTGTTGGCTCCCGTATCA
binds: [1] | [2] | [3]

B2: BoNT A/B LC aptamer (ssDNA)
DNA: CATCCGTCACACCTGCTCTGATCAGGGAAGACGCCAACACTGGTGTTGGCTCCCGTATCA
binds: all assays above
